Measured values as given in publication PMC11008285 (Cell reports, 2024).

Target: the molecule itself

B1: full-length CARD9 (natural protein, UniProt Q9H257 1-536, looked up)
chain: MSDYENDDECWSVLEGFRVTLTSVIDPSRITPYLRQCKVLNPDDEEQVLSDPNLVIRKRKVGVLLDILQRTGHKGYVAFLESLELYYPQLYKKVTGKEPARVFSMIIDASGESGLTQLLMTEVMKLQKKVQDLTALLSSKDDFIKELRVKDSLLRKHQERVQRLKEECEAGSRELKRCKEENYDLAMRLAHQSEEKGAALMRNRDLQLEIDQLKHSLMKAEDDCKVERKHTLKLRHAMEQRPSQELLWELQQEKALLQARVQELEASVQEGKLDRSSPYIQVLEEDWRQALRDHQEQANTIFSLRKDLRQGEARRLRCMEEKEMFELQCLALRKDSKMYKDRIEAILLQMEEVAIERDQAIATREELHAQHARGLQEKDALRKQVRELGEKADELQLQVFQCEAQLLAVEGRLRRQQLETLVLSSDLEDGSPRRSQELSLPQDLEDTQLSDKGCLAGGGSPKQPFAALHQEQVLRNPHDAGLSSGEPPEKERRRLKESFENYRRKRALRKMQKGWRQGEEDRENTTGSDNTDTEGS
- stoichiometry N: 4
